Measured values taken from patent publication US20120231011A1 (APEXIGEN, published 2012).

Tests used:
[1] = target: T1, IgG Fc-hVEGF-A (Human VEGF 165) fusion protein (rabbit; human, UniProt P15692-4 27-191); assay: competitive ELISA: antibody mixed with IgG Fc-hVEGF, added to plate-bound IgG Fc-VEGFR2 (KDR); bound VEGF detected (OD405) [FIG. 1]
T1 construct: Expressed in HEK 293-6E cells and purified on Protein A; not shown: rabbit IgG Fc

human VEGF [2] = target: T2, human VEGF (human, UniProt P15692-4 27-191, limits assumed); assay: SPR, BIAcore-3000, human VEGF on CM5 chip
T2 construct: The background describes VEGF as a homodimer

human VEGF [3] = target: T2, human VEGF; assay: SPR, BIAcore-3000, human VEGF on CM5 chip, experiment 1
human VEGF [4] = target: T2, human VEGF; assay: SPR, BIAcore-3000, human VEGF on CM5 chip, experiment 2
human VEGF [5] = target: T2, human VEGF; assay: SPR, BIAcore-3000, human VEGF on CM5 chip; reference AVASTIN
human VEGF [6] = target: T2, human VEGF; assay: SPR, BIAcore-3000, human VEGF on CM5 chip, average of two experiments
[7] = target: T1, IgG Fc-hVEGF-A (Human VEGF 165) fusion …; assay: competitive ELISA: antibody premixed with IgG Fc-hVEGF, plate coated with IgG Fc-VEGFR2 (KDR)
[8] = target: T1, IgG Fc-hVEGF-A (Human VEGF 165) fusion …; assay: direct binding ELISA on plate-bound IgG Fc-hVEGF, detection with donkey anti-human IgG-AP (OD405) [FIG. 4]

T2 sequence (P15692 other isoform, or with tags, fused parts or gaps limits assumed): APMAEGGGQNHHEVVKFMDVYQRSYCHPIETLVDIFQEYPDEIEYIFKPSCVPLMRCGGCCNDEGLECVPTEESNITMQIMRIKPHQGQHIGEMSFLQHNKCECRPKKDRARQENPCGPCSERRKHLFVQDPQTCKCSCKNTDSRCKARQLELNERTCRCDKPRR
T1 sequence (P15692 other isoform, or with tags, fused parts or gaps limits assumed): as above

B1: recombinant humanized antibody expressed by the HZD-V1 clone (antibody, V domains shown)
VH: QQLVESGGGLVKPGGSLRLSCAASGFSFSNNDVMCWVRQAPGKGLEWIGCIMTTDVVTEYANWAKSRFTVSKDSAKNSVYLQMNSLRAEDTAVYFCARDSVGSPLMSFDLWGPGTLVTVSS
VL: ALQMTQSPSSLSASVGDRVTINCQASQSVYGNNELSWYQQKPGKPPKLLIYRASTLASGVPSRFSGSGSGTDFTLTISSLQPEDVATYYCGGYKSYSNDGNGFGGGTKVEIK
notes: The pairing of VH-HZD1 with VK-HZD1 for clone HZD-V1 is inferred from the names; Variable domains were cloned onto human CH and human CK
- IC50 (read off the curve) [1]: ~0.9 µg/mL

B2: recombinant humanized antibody expressed by the HZD-V2 clone (antibody, V domains shown)
VH: QQLVESGGGLVKPGGSLRLSCAASGFSFSNNDVMCWVRQAPGKGLEWIGCIMTTDVVTEYANWAKSRFTVSRDSAKNSVYLQMNSLRAEDTAVYFCARDSVGSPLMSFDLWGPGTLVTVSS
VL: ALQMTQSPSSLSASVGDRVTINCQASQSIYNNNELSWYQQKPGKPPKLLIYRASTLASGVPSRFSGSGSGTDFTLTISSLQPEDVATYYCGGYKSYSNDGNGFGGGTKVEIK
notes: The pairing of VH-HZD2 with VK-HZD2 for clone HZD-V2 is inferred from the names; Variable domains were cloned onto human CH and human CK
- IC50 (read off the curve) [1]: ~0.9 µg/mL

B3: EPI0030 antibody (humanized rabbit anti-VEGF monoclonal antibody expressed by the HZD-V6 clone) (antibody, human IgG1, kappa, V domains shown)
VH: EVQLVESGGGLVKPGGSLRLSCAASGFSFSNNDVMCWVRQAPGKGLEWIGCIMTTDVVTEYANWAKSRFTVSRDSAKNSVYLQMNSLRAEDTAVYFCARDSVGSPLMSFDLWGPGTLVTVSS
VL: DIQMTQSPSSLSASVGDRVTINCQASQSIYNNNELSWYQQKPGKPPKLLIYRASTLASGVPSRFSGSGSGTDFTLTISSLQPEDVATYYCGGYKSYSNDGNGFGGGTKVEIKR
- ratio of Kd to that of AVASTIN (human VEGF [2]): 0.01
- Kd (human VEGF [3]): 331 pM
- Kd (human VEGF [4]): 638 pM
- ratio of Kd to that of AVASTIN (human VEGF [5]): 0.01 fold (Kd of EPI0030 / Kd of AVASTIN)
- Kd (human VEGF [6]): 485 pM
- IC50 [7]: 0.166 µg/mL
- EC50 (read off the curve) [8]: ~0.01 µg/mL
- IC50 (read off the curve) [1]: ~0.9 µg/mL

B4: recombinant humanized antibody expressed by the HZD-V5 clone (antibody, V domains shown)
VH: EVQLVESGGGLVKPGGSLRLSCAASGFSFSNNDVMCWVRQAPGKGLEWIGCIMTTDVVTEYANWAKSRFTVSKDSAKNSVYLQMNSLRAEDTAVYFCARDSVGSPLMSFDLWGPGTLVTVSS
VL: DIQMTQSPSSLSASVGDRVTINCQASQSVYGNNELSWYQQKPGKPPKLLIYRASTLASGVPSRFSGSGSGTDFTLTISSLQPEDVATYYCGGYKSYSNDGNGFGGGTKVEIK
notes: The pairing of VH-HZD5 with VK-HZD5 for clone HZD-V5 is inferred from the names; Variable domains were cloned onto human CH and human CK
- IC50 (read off the curve) [1]: ~0.9 µg/mL
